# Results taken from patent US11667697.
# Key:
# [1] = biological target: MPXV ortholog of I1 (monkeypox virus); test: cell-based or functional assay
# [2] = biological target: MPXV ortholog of I1 (monkeypox virus); test: lysate ELISA
# [3] = biological target: VACV I1 protein (vaccinia virus); test: lysate ELISA
# [4] = biological target: CPXV ortholog of I1 (cowpox virus); test: lysate ELISA
# [5] = biological target: MPXV ortholog of H3 (monkeypox virus); test: cell-based or functional assay
# [6] = biological target: CPXV ortholog of H3 (cowpox virus); test: cell-based or functional assay
# [7] = biological target: MPXV ortholog of H3 (monkeypox virus); test: lysate ELISA
# [8] = biological target: CPXV ortholog of H3 (cowpox virus); test: lysate ELISA
# [9] = biological target: MPXV ortholog of A33 (monkeypox virus); test: cell-based or functional assay
# [10] = biological target: VARV ortholog of A33 (variola virus); test: purified antigen ELISA
# [11] = biological target: MPXV ortholog of A33 (monkeypox virus); test: lysate ELISA
# [12] = biological target: CPXV ortholog of A33 (cowpox virus); test: lysate ELISA
# [13] = biological target: VACV A21 protein (vaccinia virus); test: purified antigen ELISA
# [14] = biological target: CPXV ortholog of A27 (cowpox virus); test: cell-based or functional assay
# [15] = biological target: MPXV ortholog of the A27 VACV protein (monkeypox virus); test: cell-based or functional assay
# [16] = biological target: VARV ortholog of A27 (variola virus); test: purified antigen ELISA
# [17] = biological target: MPXV ortholog of the A27 VACV protein (monkeypox virus); test: purified antigen ELISA
# [18] = biological target: CPXV ortholog of A27 (cowpox virus); test: lysate ELISA
# [19] = biological target: MPXV ortholog of the A27 VACV protein (monkeypox virus); test: lysate ELISA
# [20] = biological target: CPXV ortholog of L1 (cowpox virus); test: cell-based or functional assay
# [21] = biological target: MPXV ortholog of L1 (monkeypox virus); test: cell-based or functional assay
# [22] = biological target: VARV ortholog of L1 (variola virus); test: purified antigen ELISA
# [23] = biological target: CPXV ortholog of L1 (cowpox virus); test: lysate ELISA
# [24] = biological target: MPXV ortholog of L1 (monkeypox virus); test: lysate ELISA
binder,measurement,setting,value
"MPXV-97 (antibody, V domains shown) VH: QVQLVQSGGGVVQPGRSLTLSCSASGFIFTRYGLHWVRQAPGKGLEWVAVISSDGTNRHYADSVKGRFTVSRDNSKSTLYVQMNSLRNEDTAVYYCARLSLEAAWYFDLWGRGTLVTVSS VL: QSVVTQPPSVSGAPGQRVTISCTGSSSNIGAGYDVHWYQHLPGTAPKVLIYGNTNRPSGVPDRFSGSKSGTSASLAITGLQAEDEADYYCQSYDNSLNGPWVFGTGTQ","PRNT Emax, MPXV MV",[1],96%
same,"PRNT Emax, MPXV MV+C'",[1],76%
same,"PRNT IC50, MPXV MV",[1],0.02 µg/mL
same,"PRNT IC50, MPXV MV+C'",[1],0.02 µg/mL
same,EC50,[2],0.001 µg/mL
same,EC50,[3],0.008 µg/mL
same,EC50,[4],> 50 µg/mL
"VACV-314 (antibody, V domains shown) VH: QVQLVQSGPGLVKPSETLSLTCTVSGGSISSYYWSWIRQPPGKGLEYIGHIYYSGGTKYNPSLRSRVTISVDTSKNQFSLKLTSVTAADTAVYYCARLAGRKPDADSWGQGTLVTVSS VL: QPVLTQEPSLTVSPGGTVTLTCASSTGAVTSGFFPNWLQQKPGQAPRALIYSTNNKHSWTPARFSGSLLGGKAALTLSGVQPEDEAEYYCLLYYGGVVVFGGGTKLTVL","PRNT Emax, MPXV MV+C'",[5],84%
same,"PRNT IC50, MPXV MV+C'",[5],0.8 µg/mL
same,"PRNT Emax, CPXV MV+C'",[6],85%
same,"PRNT IC50, CPXV MV+C'",[6],0.7 µg/mL
same,EC50,[7],0.003 µg/mL
same,EC50,[8],0.004 µg/mL
"MPXV-51 (antibody, V domains shown) VH: QLQLQESGPGLVKPSETLSLSCTVSGGSINSRTYYWGWIRQPPGKGPEWIGTVFHNVSTLYTSSLRSRVTISVDTSKNRFSLKLTSVTAADTAVYFCGRLTPRNLFRGTLVRWVDPWGQGILVTVSS VL: EIVLAQSPGTLSLSPGERATLSCRASHNLNSNYLAWYQQKPGQAPRLLIYGASSRATGIPDRFTGSGSGTDFTLTISRLEPEDFAVYYCQQYAGSLTFGGGTKVDIK","PRNT Emax, MPXV EV+C'",[9],77%
same,"PRNT IC50, MPXV EV+C'",[9],0.8 µg/mL
same,EC50,[10],0.04 µg/mL
same,EC50,[11],0.025 µg/mL
same,EC50,[12],0.024 µg/mL
"VACV-318 (antibody, V domains shown) VH: SYELTQPPSVSVSPGQTARITCSGDELPKRYAYWYQQKSGQAPVLVIYEDTKRPSGIPERFSGSSSGTVATLTISGAQVDDEADYYCYSTDSTSNHKRVFGGGTQVTVL V domain: QVQLVESGGGVVQPGRSLRLSCTASGFNFSYYGIHWVRQAPGKGLQWVALISYDGSDKYYADSVKGRFTVSRDYSKNTLFLQMNSLRGDDTAVYYCQMVKVPFYFWGQGTMVTLSS",EC50,[13],1.3 µg/mL
"VACV-301 (antibody, V domains shown) VH: EVQLLESGGGLVQPGGSLRLSCAASGFSFSSYAMSWVRQAPGKGLEWVSGIGNSGDRTFYADSAKGRFTIFRDNSNNRLYLQMNSLRAADTAVYYCAKWGRFESGAFWGQGVLVTVSS VL: SYELTQSPSVSVSPGQTARITCSGDALPEQYAYWYQQKPGQAPVLVIYKDSERPSGIPERFSGSGSGTTVTLTITGVQAEDEADYYCQSADNSGTYEVFGTGTKVTVL","PRNT Emax, CPXV MV+C'",[14],86%
same,"PRNT IC50, CPXV MV+C'",[14],4 µg/mL
same,"PRNT Emax, MPXV MV",[15],84%
same,"PRNT Emax, MPXV MV+C'",[15],92%
same,"PRNT IC50, MPXV MV",[15],1.6 µg/mL
same,"PRNT IC50, MPXV MV+C'",[15],0.8 µg/mL
same,EC50,[16],0.11 µg/mL
same,EC50,[17],0.04 µg/mL
same,EC50,[18],> 1.4 µg/mL
same,EC50,[19],> 5.6 µg/mL
"MPXV-87 (antibody, V domains shown) V domain 1: QVQLVQSGAEVKKPGASVKVSCKASGYTFTSHGIIWVRQAPGQGLEWMGWISVYNDNTNSAQKFQDRVTMTTATSTSTAYMELRSLRSDDTAVYYCARSSSGPRYYYYGMDVWGQGTTSP V domain 2: QSVVTQPPSVSGAPGQRVTISCTGSSSNIGAGYAVHWYYQLPGIAPKLLIFGNNNRPSGVPDRFSGSKSGTSASLAITGLQAEDEADYYCQSYDSSLSGWVFGGGTQVTVL","PRNT Emax, CPXV MV",[20],63%
same,"PRNT Emax, CPXV MV+C'",[20],82%
same,"PRNT IC50, CPXV MV",[20],0.8 µg/mL
same,"PRNT IC50, CPXV MV+C'",[20],0.6 µg/mL
same,"PRNT Emax, MPXV MV",[21],57%
same,"PRNT Emax, MPXV MV+C'",[21],65%
same,"PRNT IC50, MPXV MV",[21],50 µg/mL
same,"PRNT IC50, MPXV MV+C'",[21],50 µg/mL
same,EC50,[22],0.3 µg/mL
same,EC50,[23],0.003 µg/mL
same,EC50,[24],0.001 µg/mL
"VACV-22 (antibody, V domains shown) VH: QVQLVESGGGVVQPGRSLRLSCAASGFTFSNSGMHWVRQAPGKGLEWVAVIWFDGTNKYYADSVKGRFTISRDNSKNTLYLQMNSLRAEDTAVYYCARVPCGGDCYSGYLQHWGQGTLVTVSS VL: AIVMTQSPATLSVSPGERATLSCRASQSVSSTLAWYQQKPGQAPRLLIYGASTKATGIPARFSGSGSGTEFTLTISSLQSEDFAVYYCQHYNNWPPLLTFGGGTKVDIK","PRNT Emax, MPXV EV+C'",[9],72%
same,"PRNT IC50, MPXV EV+C'",[9],50 µg/mL
same,EC50,[10],0.02 µg/mL
same,EC50,[11],> 0.006 µg/mL
same,EC50,[12],> 0.009 µg/mL
